Data set [1] addresses T1, TraI36 (F TraI relaxase domain) (Escherichia coli F plasmid (F factor), UniProt P14565 1-330).
T1 sequence: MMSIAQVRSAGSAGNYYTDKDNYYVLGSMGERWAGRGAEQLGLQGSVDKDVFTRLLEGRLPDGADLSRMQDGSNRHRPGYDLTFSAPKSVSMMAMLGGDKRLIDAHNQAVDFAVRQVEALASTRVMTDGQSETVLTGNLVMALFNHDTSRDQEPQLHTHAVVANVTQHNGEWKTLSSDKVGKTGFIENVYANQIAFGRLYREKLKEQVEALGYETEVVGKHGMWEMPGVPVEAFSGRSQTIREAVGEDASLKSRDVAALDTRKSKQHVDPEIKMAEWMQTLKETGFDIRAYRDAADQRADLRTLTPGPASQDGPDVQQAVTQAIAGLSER
Nature of the data set: fluorescence dissociation kinetics.

The target in data set [2] is T1, TraI36 (F TraI relaxase domain). Briefly: fluorescence anisotropy and intensity.
Data set [3] has the same target. Nature of the data set: fluorescence anisotropy and intensity. This is another data set of the same source. A general note: In fluorescence polarisation assays a small probe gives low polarisation when free and higher when bound to something large.
The target is the same in data set [4]. Nature of the data set: competition.

Eight molecules from paper PMC1331984 can be followed below.

Where two headings read alike, the source gives them in different places.

GCAAAAACTTGTTTTTCGGTGGGGTGTGGT (structured_DNA) [G151'C/C150'G Hairpin]: the binding result in data set [1] is reported as “binds”. In data set [2], CGAAAAACTTGTTTTTCGGTGGGGTGTGGT (structured_DNA) [G167'C/C166'G/G151'C/C150'G Hairpin] registered a dissociation constant Kd of 78 ± 2 nM.

Molecule TTTGCGTGGGGTGTGGT (ssDNA) [WT 17mer] registered a Kd in data set [2] of 39 ± 0.8 nM. Regarding CGAAAAACTTGTTTTTGCGTGGGGTGTGGT (structured_DNA) [G167'C/C166'G Hairpin], the Kd in data set [3] is 12 ± 1.8 nM.

Take TTTCGGTGGGGTGTGGT (ssDNA) [G151'C/C150'G 17mer]: binding in data set [2] was characterised by a dissociation constant (Kd) of 390 ± 9 nM. Take TTTGCGTGGGCTGTGGT (ssDNA) [G144'C 17mer]: the binding result in data set [4] is reported as “no binding”.

Consider GCAAAAACTTGTTTTTGCGTGGGGTGTGGT (structured_DNA) [WT Hairpin], for which the Kd in data set [3] stood at 6.8 ± 1.2 nM. Regarding CGTTTTTGTTGTTTTTGCGTGGGGTGTGGT (ssDNA) [No Hairpin], binding in data set [2] was put at a Kd of 16 ± 1 nM.

The term Kd denotes the free concentration of one partner at which half of the binding sites on the other are occupied at equilibrium, for simple one-to-one binding. High values mean weaker binding, low ones tighter binding.
